Experimental data: patent US7932227 (UNIVERSITY OF VIRGINIA PATENT FOUNDATION, dated 2011)
One block for each binder: values may come before it.

How the values were obtained:
[1] = target: T1, human syndecan-1 (SDC1) (human, UniProt P18827 23-310, heparan sulfate and chondroitin sulfate chains; the lacritin-bindable form is partly or wholly deglycanated (heparanase or heparitinase)); assay: N-24-intein beads, HEK293T/SDC1 lysate, B-B4 blot
T1 construct: Seen as 190 kDa multimer and 80 kDa band on blots; also called cell surface SDC1; native SDC1
T1 sequence: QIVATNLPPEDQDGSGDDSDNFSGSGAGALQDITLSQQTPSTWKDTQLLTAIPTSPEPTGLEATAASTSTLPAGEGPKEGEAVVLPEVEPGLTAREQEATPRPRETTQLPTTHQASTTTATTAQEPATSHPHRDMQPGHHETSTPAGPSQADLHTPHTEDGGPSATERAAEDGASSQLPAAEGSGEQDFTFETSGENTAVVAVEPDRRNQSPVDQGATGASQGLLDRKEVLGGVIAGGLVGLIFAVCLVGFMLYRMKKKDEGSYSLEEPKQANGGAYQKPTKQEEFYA
Procedure: (§1) All lacritin truncations were expressed as intein fusion proteins for affinity precipitation. Asterisk indicates mitogenic domain (Wang et al, submitted), and boxes represent PSIPRED-predicted alpha helices. (B) Lacritin-, C-5-, C-10-, C-15-, C-25- and C-59-intein beads were incubated with lysates from HEK293T cells stably expressing human SDC1. Beads were washed and treated with heparitinase I/chondroitinase ABC. The digests were centrifuged, and pellets (P) and supernatants (S) blotted with mAb B-B4 for SDC1 core protein, all as in FIG. 2. (C) Incubation of lacritin-, N-15- and N-24-intein beads with the same human SDC1 lysates was followed with identical washing, heparitinase I/chondroitinase ABC digestion, centrifugation and B-B4 mAb blotting. Lys, lysate. Figure 3B: Figure 3C: Figure 4A: FIG. 4. Lacritin-SDC1 binding is inhibited by soluble hS1ED, lacritin and N-24, but not by C-25, C-59, HS, CS, SDC2 or SDC4. (A) Top row, lacritin-intein beads were incubated with human SDC1 lysates from stably expressing HEK293T cells in the presence of increasing amounts of soluble HS (70-700 µg), HS (700 µg) plus CS (700 µg), lacritin (14-700 µg) or no inhibitor (−). Quantity of soluble inhibitor was calibrated relative to the approximately 7-8 µg of human SDC1 elutable from lacritin-intein beads with 1 M NaCl. […] (B) Quantification of inhibition binding.

[2] = target: T2, alpha-2C-adrenergic receptor (ADRA2C) (human, UniProt P18825 1-462, limits assumed); assay: low salt competition against 125I-iodoclonidine on immobilized human ADRA2C, repeated assays
T2 sequence (looked up): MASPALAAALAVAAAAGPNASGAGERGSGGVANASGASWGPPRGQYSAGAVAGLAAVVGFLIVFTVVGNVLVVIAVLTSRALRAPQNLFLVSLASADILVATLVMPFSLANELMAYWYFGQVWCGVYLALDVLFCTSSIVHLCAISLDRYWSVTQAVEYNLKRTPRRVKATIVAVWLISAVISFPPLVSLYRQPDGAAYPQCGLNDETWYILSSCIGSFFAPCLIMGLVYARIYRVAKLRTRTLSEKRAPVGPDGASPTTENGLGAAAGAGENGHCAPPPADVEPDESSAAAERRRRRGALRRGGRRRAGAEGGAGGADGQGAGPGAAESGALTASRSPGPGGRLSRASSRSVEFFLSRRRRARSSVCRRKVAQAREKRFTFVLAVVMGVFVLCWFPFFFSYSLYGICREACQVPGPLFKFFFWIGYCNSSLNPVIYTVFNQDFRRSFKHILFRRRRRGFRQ
Procedure: If we are correct that syndecan-1 increases lacritin's affinity for a G-protein coupled receptor (GPCR), possibly some low affinity GPCR binding can be detected without syndecan-1 in low salt. To ask this question, a low salt screen of 31 immobilized human GPCRs in which 10 nM lacritin, N-24 or C-25 were asked to compete with 125I-receptor ligand for receptor binding. […] Although preliminary, this compares to 1698 nM for native agonist epinephrine. Possibly N-24's lack of seven negatively charged residues may improve binding in the absence of syndecan-1.

[3] = target: T1, human syndecan-1 (SDC1); assay: soluble competitor of lacritin-intein beads for SDC1 in HEK293T lysate, B-B4 blot
Procedure: as §1

[4] = target: T1, human syndecan-1 (SDC1); assay: soluble competitor in lacritin-intein affinity precipitation of SDC1
Procedure: as §1

[5] = target: T1, human syndecan-1 (SDC1); assay: C-5-intein beads, HEK293T/SDC1 lysate, B-B4 blot
Procedure: as §1

[6] = target: T1, human syndecan-1 (SDC1); assay: C-10-intein beads, HEK293T/SDC1 lysate, B-B4 blot
Procedure: as §1

[7] = target: T1, human syndecan-1 (SDC1); assay: N-15-intein beads, HEK293T/SDC1 lysate, B-B4 blot
Procedure: as §1

[8] = target: T3, human syndecan-4 (SDC4) (human, UniProt P31431 19-198, heparan sulfate chains); assay: SDC4 purified on FGF2-GST, salt eluted, heparitinase digested, incubated with lacritin-intein beads
T3 construct: also called native SDC4
T3 sequence (looked up): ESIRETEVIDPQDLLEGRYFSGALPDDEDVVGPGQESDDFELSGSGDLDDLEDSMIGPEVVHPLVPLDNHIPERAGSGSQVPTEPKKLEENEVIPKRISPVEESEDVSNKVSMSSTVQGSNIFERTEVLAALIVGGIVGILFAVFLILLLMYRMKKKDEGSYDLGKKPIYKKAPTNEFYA
Procedure: (§2) Lysates were cleared by centrifugation (20,000×g) at 4° C., and protein concentration of supernatant was estimated by the BCA assay (Pierce, Rockford Ill.). Lacritin-intein or lacritin-GST (5 µg) and FGF2-GST fusion proteins were respectively bound to chitin beads (New England Biolabs, Ipswich Mass.) or glutathione-Sepharose beads (Amersham Biosciences, Piscataway N.J.). Beads were incubated with lysates (~200 µg of SDC1 stably expressing HEK293T cells) overnight at 4° C., and washed three times with binding buffer as above (each wash three times the bead volume). In competition assays, SDC1 lysates were mixed with increasing amounts of soluble lacritin, HS, HS plus CS (Seikagaku America, Falmouth Mass.), bacterially expressed human SDC1 ectodomain (hS1ED), native SDC2, native SDC4, N-24 or C-25. Mixtures were then applied to lacritin immobilized beads, and further studied as described below. For sequential pull down assays, cell lysates were sequentially affinity precipitated with FGF2-GST or lacritin-intein. After FGF2-GST depletion of all available FGF-bindable SDC1, one-half was precipitated with lacritin-intein. The other half was methanol precipitated overnight and resuspended in heparitinase buffer. […]

[9] = target: T1, human syndecan-1 (SDC1); assay: lacritin-intein-chitin column, detergent lysate of surface biotinylated HSG cells, 1 M NaCl elution, streptavidin blot, mass spectrometry
Procedure: Cell surface biotinylation, and affinity chromatography followed the method of Chen et al (1997). Briefly, six 150 mm culture dishes of 80% confluent HSG cells were washed twice on ice with ice-cold PBS and incubated for 30 min with EZ-Link Sulfo-NHS-LC Biotin (Pierce, Rockford Ill.). Cells were then washed twice with PBS-glycine, gently loosened with a cell scraper, and pelleted at 4° C. The pellet was twice resuspended in 25 ml PBS-glycine, and incubated for 30 min in 1 ml lysis buffer (50 mM Tris HCl, pH 7.4, 100 mM NaCl, 5 mM MnCl2, 2 mM PMSF, 200 mM n-octyl-β-D-glucopyranoside, and protease inhibitors (Roche Diagnostics, Penzberg Germany)). Lysate was centrifuged for 15 min at 4° C., and the supernatant applied to a 1 ml pre-column then washed through with 1 ml of binding buffer (50 mM Tris HCl, pH 7.4, 100 mM NaCl, 5 mM MnCl2, 2 mM PMSF, 50 mM n-octyl-β-D-glucopyranoside) and collected. […] For the latter, blots were blocked with PBS containing 0.1% Tween-20 and 2.5% milk for 1 h at 37° C., washed three times with PBS/0.1% Tween-20, incubated in 50 ml of 1:1000 streptavidin-horseradish peroxidase conjugate (Amersham Biosciences, Piscataway N.J.) in PBS/0.1% Tween-20, washed five times with the same buffer and then detected using ECL reagent (Pierce, Rockford Ill.). […]

[10] = target: T4, human syndecan-2 (SDC2) (human, UniProt P34741 19-201, heparan sulfate chains); assay: SDC2 purified on FGF2-GST, salt eluted, heparitinase digested, incubated with lacritin-intein beads
T4 construct: also called native SDC2
Procedure: as §2

T4 sequence (P34741 19-201 limits assumed): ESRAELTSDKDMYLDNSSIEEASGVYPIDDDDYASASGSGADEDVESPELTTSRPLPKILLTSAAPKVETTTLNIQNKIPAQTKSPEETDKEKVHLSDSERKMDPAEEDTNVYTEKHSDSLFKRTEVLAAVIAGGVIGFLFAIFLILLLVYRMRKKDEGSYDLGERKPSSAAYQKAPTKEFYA

B1: N-24 lacritin-intein (ligand, not shown: small tags and cut ends)
chain: ISGPAEPASPPETTTTAQETSAAAVQGTAKVTSSRQELNPLKSIVEKSILLTEQALAKAGKGMHGGVPGGKQFIENGSEFAQKLLKKFSLLKPWA
binding result [1]: binds

B4: C-5 lacritin-intein (ligand, not shown: small tags and cut ends)
chain: EDASSDSTGADPAQEAGTSKPNEEISGPAEPASPPETTTTAQETSAAAVQGTAKVTSSRQELNPLKSIVEKSILLTEQALAKAGKGMHGGVPGGKQFIENGSEFAQKLLKKFSL
notes: All lacritin truncations were expressed as intein fusion proteins
binding result [5]: binds

B5: C-10 lacritin-intein (ligand, not shown: small tags and cut ends)
chain: EDASSDSTGADPAQEAGTSKPNEEISGPAEPASPPETTTTAQETSAAAVQGTAKVTSSRQELNPLKSIVEKSILLTEQALAKAGKGMHGGVPGGKQFIENGSEFAQKLL
binding result [6]: binds

B6: N-15 lacritin-intein (ligand, not shown: small tags and cut ends)
chain: AGTSKPNEEISGPAEPASPPETTTTAQETSAAAVQGTAKVTSSRQELNPLKSIVEKSILLTEQALAKAGKGMHGGVPGGKQFIENGSEFAQKLLKKFSLLKPWA
binding result [7]: binds

More lines, now with the values ahead:

Ki [2]: 1290 nM | binding result [3]: binds
B2: soluble N-24 lacritin (ligand)
chain: ISGPAEPASPPETTTTAQETSAAAVQGTAKVTSSRQELNPLKSIVEKSILLTEQALAKAGKGMHGGVPGGKQFIENGSEFAQKLLKKFSLLKPWA
notes: Range counted by me

binding result [4]: no binding (tested: 14 µg)
B3: soluble C-25 lacritin (ligand)
chain: EDASSDSTGADPAQEAGTSKPNEEISGPAEPASPPETTTTAQETSAAAVQGTAKVTSSRQELNPLKSIVEKSILLTEQALAKAGKGMHGGVPGG
notes: Range counted by me

binding result [8]: no binding | binding result [9]: binds | binding result [10]: no binding
B7: lacritin-intein (lacritin coupled to chitin beads via chitin-binding intein) (ligand, not shown: small tags and cut ends)
chain: EDASSDSTGADPAQEAGTSKPNEEISGPAEPASPPETTTTAQETSAAAVQGTAKVTSSRQELNPLKSIVEKSILLTEQALAKAGKGMHGGVPGGKQFIENGSEFAQKLLKKFSLLKPWA
notes: Bacterial fusion protein held on chitin beads; also called lacritin-intein beads; lacritin column

binding result [3]: binds
B8: soluble lacritin (recombinant) (ligand)
chain: EDASSDSTGADPAQEAGTSKPNEEISGPAEPASPPETTTTAQETSAAAVQGTAKVTSSRQELNPLKSIVEKSILLTEQALAKAGKGMHGGVPGGKQFIENGSEFAQKLLKKFSLLKPWA
notes: also called intact lacritin

binding result [4]: no binding (tested: 14 µg)
B9: soluble C-59 lacritin (ligand)
chain: EDASSDSTGADPAQEAGTSKPNEEISGPAEPASPPETTTTAQETSAAAVQGTAKVTSSRQ
notes: Range counted by me
